The supplement of paper PMC10065799, “High-throughput profiling of sequence recognition by tyrosine kinases and SH2 domains using bacterial peptide display” (eLife, 2023)

Assays:
c-Src SH2 = assay: SH2 binding enrichment of the phosphorylated peptide, bacterial display (enrichment ratio); higher = better substrate or ligand; peptides without Tyr show the background
Grb2 SH2 = Grb2 SH2 (UniProt P62993); assay: as above
SHP2-C SH2 = assay: as above
MERTK = MERTK (UniProt Q12866); assay: phosphorylation enrichment, bacterial display (enrichment ratio); higher = better substrate or ligand; peptides without Tyr show the background
EPHB2 = EPHB2 (UniProt P29323); assay: as above
FGFR3 = FGFR3 (UniProt P22607); assay: as above
AncSZ = assay: as above
Fyn = Fyn (UniProt P06241); assay: as above
Hck = Hck (UniProt P08631); assay: as above
Fes = Fes (UniProt P07332); assay: as above
EPHB1 = EPHB1 (UniProt P54762); assay: as above
c-Src = assay: as above
c-Abl (mouse) = assay: as above
Jak2 = Jak2 (UniProt O60674); assay: as above
Fer (mouse) = assay: as above
FGFR1 = FGFR1 (UniProt P11362); assay: as above
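Wherever SH2 binding enrichment of the phosphorylated peptide, bacterial display is given: peptide library displayed on the E. coli surface as eCPX fusions, selected cells deep-sequenced, score is each peptide's frequency after selection divided by its frequency in the input.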
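Wherever phosphorylation enrichment, bacterial display is given: 11-residue human phosphosite peptides and single-mutation variants displayed on the E. coli surface, counted by deep sequencing, each peptide's frequency after selection divided by its frequency in the unselected input library; frequency after pTyr selection over input frequency; kinase dosed for 20-30% of maximal phosphorylation in three min.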

Sequence of Jak2 (O60674 whole entry, looked up): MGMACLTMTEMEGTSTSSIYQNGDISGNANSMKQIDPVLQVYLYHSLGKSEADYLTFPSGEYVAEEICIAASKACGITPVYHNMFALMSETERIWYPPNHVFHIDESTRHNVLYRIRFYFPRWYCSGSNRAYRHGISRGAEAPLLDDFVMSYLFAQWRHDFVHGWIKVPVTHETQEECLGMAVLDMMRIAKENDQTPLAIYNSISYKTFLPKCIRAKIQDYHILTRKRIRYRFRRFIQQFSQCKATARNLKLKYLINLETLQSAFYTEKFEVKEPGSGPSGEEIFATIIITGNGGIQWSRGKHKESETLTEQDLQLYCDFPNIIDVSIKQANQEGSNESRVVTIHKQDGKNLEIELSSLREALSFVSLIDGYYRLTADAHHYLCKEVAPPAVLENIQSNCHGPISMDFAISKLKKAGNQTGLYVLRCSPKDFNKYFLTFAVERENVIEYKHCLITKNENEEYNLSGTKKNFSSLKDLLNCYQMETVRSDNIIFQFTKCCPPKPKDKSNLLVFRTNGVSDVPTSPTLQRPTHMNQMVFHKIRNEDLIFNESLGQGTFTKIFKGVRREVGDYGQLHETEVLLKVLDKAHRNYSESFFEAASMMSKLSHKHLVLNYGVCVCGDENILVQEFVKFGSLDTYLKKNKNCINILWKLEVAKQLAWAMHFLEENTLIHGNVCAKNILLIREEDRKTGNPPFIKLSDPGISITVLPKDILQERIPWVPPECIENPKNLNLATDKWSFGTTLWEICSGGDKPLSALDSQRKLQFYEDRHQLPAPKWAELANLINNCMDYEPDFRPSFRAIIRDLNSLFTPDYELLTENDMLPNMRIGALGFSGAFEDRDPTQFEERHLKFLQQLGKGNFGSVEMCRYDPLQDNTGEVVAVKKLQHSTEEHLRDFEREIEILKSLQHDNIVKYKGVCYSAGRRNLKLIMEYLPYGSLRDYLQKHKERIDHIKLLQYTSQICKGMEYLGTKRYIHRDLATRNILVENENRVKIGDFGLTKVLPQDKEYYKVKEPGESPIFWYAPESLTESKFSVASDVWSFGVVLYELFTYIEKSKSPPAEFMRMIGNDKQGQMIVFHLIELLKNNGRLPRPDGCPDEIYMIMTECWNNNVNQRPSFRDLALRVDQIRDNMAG
Sequence of Fyn (P06241 whole entry, looked up): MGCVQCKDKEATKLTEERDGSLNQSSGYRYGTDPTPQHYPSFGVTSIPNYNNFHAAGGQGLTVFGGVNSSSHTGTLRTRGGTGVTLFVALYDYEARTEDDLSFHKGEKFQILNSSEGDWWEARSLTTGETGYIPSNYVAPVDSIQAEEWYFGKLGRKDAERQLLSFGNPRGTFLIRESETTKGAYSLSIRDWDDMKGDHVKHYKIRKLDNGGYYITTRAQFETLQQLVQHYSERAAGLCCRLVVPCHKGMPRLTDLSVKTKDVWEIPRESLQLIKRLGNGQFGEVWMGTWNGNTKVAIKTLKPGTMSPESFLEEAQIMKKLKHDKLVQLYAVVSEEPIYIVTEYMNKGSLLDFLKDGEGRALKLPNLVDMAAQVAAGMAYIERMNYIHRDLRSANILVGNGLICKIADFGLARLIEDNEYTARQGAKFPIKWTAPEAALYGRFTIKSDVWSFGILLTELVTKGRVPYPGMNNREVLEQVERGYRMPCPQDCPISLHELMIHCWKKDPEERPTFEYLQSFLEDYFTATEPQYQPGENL
Sequence of FGFR1 (P11362 whole entry, looked up, the tested form may be a part): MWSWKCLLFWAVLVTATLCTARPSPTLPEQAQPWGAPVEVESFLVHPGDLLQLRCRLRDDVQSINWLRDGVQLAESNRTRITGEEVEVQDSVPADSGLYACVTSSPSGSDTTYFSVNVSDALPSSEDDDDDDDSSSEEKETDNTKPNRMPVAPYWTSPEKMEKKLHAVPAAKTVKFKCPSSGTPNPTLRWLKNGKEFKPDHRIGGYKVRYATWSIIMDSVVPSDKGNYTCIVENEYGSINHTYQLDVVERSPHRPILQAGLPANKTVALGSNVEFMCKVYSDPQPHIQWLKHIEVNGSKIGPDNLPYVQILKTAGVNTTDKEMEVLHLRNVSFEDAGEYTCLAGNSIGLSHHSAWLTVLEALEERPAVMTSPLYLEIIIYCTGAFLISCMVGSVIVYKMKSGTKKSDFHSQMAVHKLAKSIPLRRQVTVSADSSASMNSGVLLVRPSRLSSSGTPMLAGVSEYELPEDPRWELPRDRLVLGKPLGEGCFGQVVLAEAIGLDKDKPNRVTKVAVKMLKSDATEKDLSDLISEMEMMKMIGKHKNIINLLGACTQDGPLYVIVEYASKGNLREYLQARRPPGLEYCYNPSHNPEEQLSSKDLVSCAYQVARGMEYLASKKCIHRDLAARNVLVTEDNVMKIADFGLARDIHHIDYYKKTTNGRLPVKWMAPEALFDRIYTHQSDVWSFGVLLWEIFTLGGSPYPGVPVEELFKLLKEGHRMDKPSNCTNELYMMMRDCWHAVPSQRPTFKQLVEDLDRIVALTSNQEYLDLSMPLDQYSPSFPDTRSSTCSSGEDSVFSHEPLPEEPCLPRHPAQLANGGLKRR
Sequence of FGFR3 (P22607 whole entry, looked up): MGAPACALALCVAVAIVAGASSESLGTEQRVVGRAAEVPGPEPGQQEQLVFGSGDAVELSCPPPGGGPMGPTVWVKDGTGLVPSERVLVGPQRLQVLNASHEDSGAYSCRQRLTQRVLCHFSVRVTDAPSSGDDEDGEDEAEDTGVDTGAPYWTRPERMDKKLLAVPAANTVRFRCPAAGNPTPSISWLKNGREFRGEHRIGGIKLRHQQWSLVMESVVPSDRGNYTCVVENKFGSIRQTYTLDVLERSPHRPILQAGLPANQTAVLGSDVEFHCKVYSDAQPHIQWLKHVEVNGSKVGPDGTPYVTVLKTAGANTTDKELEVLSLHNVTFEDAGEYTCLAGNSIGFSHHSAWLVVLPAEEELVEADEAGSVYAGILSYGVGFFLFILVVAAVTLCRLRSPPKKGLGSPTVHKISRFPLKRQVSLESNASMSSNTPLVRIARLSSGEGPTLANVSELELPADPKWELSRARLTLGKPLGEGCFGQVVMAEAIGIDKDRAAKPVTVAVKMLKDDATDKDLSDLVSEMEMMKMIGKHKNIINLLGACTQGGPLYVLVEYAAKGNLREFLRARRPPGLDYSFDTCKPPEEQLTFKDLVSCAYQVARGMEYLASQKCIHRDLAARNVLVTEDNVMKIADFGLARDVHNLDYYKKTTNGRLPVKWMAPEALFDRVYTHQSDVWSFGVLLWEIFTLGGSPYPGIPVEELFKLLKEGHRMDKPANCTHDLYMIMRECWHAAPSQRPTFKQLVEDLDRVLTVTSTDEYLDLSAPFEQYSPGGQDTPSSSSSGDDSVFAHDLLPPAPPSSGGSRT
Sequence of Fes (P07332 whole entry, looked up): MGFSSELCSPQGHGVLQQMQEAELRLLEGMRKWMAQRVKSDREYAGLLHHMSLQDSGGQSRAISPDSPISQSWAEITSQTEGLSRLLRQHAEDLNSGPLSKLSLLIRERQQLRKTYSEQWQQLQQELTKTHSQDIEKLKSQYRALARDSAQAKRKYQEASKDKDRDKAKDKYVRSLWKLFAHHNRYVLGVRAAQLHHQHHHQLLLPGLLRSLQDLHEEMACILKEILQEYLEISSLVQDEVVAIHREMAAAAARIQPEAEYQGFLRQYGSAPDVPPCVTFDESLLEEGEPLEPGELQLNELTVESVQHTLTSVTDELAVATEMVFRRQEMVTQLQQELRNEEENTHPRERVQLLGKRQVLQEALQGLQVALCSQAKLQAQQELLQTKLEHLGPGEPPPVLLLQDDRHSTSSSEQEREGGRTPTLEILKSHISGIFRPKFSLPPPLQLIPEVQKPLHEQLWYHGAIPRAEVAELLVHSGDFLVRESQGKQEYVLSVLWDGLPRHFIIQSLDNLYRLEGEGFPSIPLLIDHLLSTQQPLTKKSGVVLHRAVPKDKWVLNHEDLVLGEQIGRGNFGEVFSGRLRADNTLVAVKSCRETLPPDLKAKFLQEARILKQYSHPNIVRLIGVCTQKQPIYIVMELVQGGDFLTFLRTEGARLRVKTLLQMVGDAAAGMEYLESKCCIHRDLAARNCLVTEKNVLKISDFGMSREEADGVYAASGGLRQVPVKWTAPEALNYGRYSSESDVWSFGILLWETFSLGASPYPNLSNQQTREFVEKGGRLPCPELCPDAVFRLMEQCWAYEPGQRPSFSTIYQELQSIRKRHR
Sequence of Hck (P08631 whole entry, looked up): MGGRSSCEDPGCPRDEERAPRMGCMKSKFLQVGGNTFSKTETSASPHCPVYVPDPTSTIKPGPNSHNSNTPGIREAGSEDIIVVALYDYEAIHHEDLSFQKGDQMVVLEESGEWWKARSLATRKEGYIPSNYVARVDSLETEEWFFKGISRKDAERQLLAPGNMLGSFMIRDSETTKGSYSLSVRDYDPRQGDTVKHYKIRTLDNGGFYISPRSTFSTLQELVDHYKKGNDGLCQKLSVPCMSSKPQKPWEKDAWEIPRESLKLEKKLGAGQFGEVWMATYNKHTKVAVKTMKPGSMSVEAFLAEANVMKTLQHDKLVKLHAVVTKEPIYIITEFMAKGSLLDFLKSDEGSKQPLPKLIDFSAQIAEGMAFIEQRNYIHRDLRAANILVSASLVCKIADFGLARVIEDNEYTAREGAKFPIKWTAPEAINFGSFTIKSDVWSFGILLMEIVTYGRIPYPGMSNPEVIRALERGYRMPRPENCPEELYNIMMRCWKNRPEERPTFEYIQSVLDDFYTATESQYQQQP
Sequence of Grb2 SH2 (P62993 whole entry, looked up): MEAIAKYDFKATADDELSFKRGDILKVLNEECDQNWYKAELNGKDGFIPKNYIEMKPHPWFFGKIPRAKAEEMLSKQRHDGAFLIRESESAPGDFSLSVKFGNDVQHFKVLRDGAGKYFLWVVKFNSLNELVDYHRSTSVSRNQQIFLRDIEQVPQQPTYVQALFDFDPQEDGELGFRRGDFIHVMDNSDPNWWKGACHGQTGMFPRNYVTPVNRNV

PQDVTYARLHS [LILRB4_Y412_Q414R]
SH2 binding enrichment (c-Src SH2): 1.12 | SH2 binding enrichment (Grb2 SH2): 0.85 | SH2 binding enrichment (SHP2-C SH2): 5.59 | phosphorylation enrichment (MERTK): 0.735 | phosphorylation enrichment (EPHB2): 0.797 | phosphorylation enrichment (FGFR3): 0.603 | phosphorylation enrichment (AncSZ): 0.757 | phosphorylation enrichment (Fyn): 1.91 | phosphorylation enrichment (Hck): 4.33 | phosphorylation enrichment (Fes): 1.51 | phosphorylation enrichment (EPHB1): 0.808 | phosphorylation enrichment (c-Src): 2.3 | phosphorylation enrichment (c-Abl (mouse)): 0.842 | phosphorylation enrichment (Jak2): 0.518 | phosphorylation enrichment (Fer (mouse)): 0.786 | phosphorylation enrichment (FGFR1): 0.774

PIPAAYNRFDQ [CDC73_Y290_YF]
SH2 binding enrichment (c-Src SH2): 0.579 | SH2 binding enrichment (Grb2 SH2): 0.792 | SH2 binding enrichment (SHP2-C SH2): 0.648 | phosphorylation enrichment (MERTK): 0.509 | phosphorylation enrichment (EPHB2): 0.426 | phosphorylation enrichment (FGFR3): 0.643 | phosphorylation enrichment (AncSZ): 0.513 | phosphorylation enrichment (Fyn): 0.451 | phosphorylation enrichment (Hck): 0.446 | phosphorylation enrichment (Fes): 0.778 | phosphorylation enrichment (EPHB1): 0.643 | phosphorylation enrichment (c-Src): 0.303 | phosphorylation enrichment (c-Abl (mouse)): 0.357 | phosphorylation enrichment (Jak2): 0.833 | phosphorylation enrichment (Fer (mouse)): 0.485 | phosphorylation enrichment (FGFR1): 0.456

KDHPDYKYPPR [SOX10_Y171_Q174P]
SH2 binding enrichment (c-Src SH2): 0.637 | SH2 binding enrichment (Grb2 SH2): 1.08 | SH2 binding enrichment (SHP2-C SH2): 0.961 | phosphorylation enrichment (MERTK): 0.331 | phosphorylation enrichment (EPHB2): 0.392 | phosphorylation enrichment (FGFR3): 0.522 | phosphorylation enrichment (AncSZ): 0.612 | phosphorylation enrichment (Fyn): 0.438 | phosphorylation enrichment (Hck): 0.381 | phosphorylation enrichment (Fes): 0.601 | phosphorylation enrichment (EPHB1): 0.355 | phosphorylation enrichment (c-Src): 0.4 | phosphorylation enrichment (c-Abl (mouse)): 0.515 | phosphorylation enrichment (Jak2): 0.462 | phosphorylation enrichment (Fer (mouse)): 0.345 | phosphorylation enrichment (FGFR1): 0.549

EIHTQYEAMAS [GFAP_Y242_R239H]
SH2 binding enrichment (c-Src SH2): 2.9 | SH2 binding enrichment (Grb2 SH2): 0.885 | SH2 binding enrichment (SHP2-C SH2): 0.487 | phosphorylation enrichment (MERTK): 0.428 | phosphorylation enrichment (EPHB2): 0.566 | phosphorylation enrichment (FGFR3): 0.491 | phosphorylation enrichment (AncSZ): 0.712 | phosphorylation enrichment (Fyn): 0.514 | phosphorylation enrichment (Hck): 0.539 | phosphorylation enrichment (Fes): 0.753 | phosphorylation enrichment (EPHB1): 0.386 | phosphorylation enrichment (c-Src): 0.383 | phosphorylation enrichment (c-Abl (mouse)): 0.42 | phosphorylation enrichment (Jak2): 0.642 | phosphorylation enrichment (Fer (mouse)): 0.677 | phosphorylation enrichment (FGFR1): 0.527

HGEAFYSEVKA [PAK5_Y182_P187A_YF]
SH2 binding enrichment (c-Src SH2): 2.48 | SH2 binding enrichment (Grb2 SH2): 1.21 | SH2 binding enrichment (SHP2-C SH2): 0.931 | phosphorylation enrichment (MERTK): 8.27 | phosphorylation enrichment (EPHB2): 1.47 | phosphorylation enrichment (FGFR3): 2.63 | phosphorylation enrichment (AncSZ): 0.971 | phosphorylation enrichment (Fyn): 3.92 | phosphorylation enrichment (Hck): 5.57 | phosphorylation enrichment (Fes): 1.01 | phosphorylation enrichment (EPHB1): 1.26 | phosphorylation enrichment (c-Src): 4.05 | phosphorylation enrichment (c-Abl (mouse)): 0.619 | phosphorylation enrichment (Jak2): 0.834 | phosphorylation enrichment (Fer (mouse)): 11 | phosphorylation enrichment (FGFR1): 4.75

QKPLDYYRVNL [GALE_Y104]
SH2 binding enrichment (c-Src SH2): 0.422 | SH2 binding enrichment (Grb2 SH2): 0.937 | SH2 binding enrichment (SHP2-C SH2): 0.672 | phosphorylation enrichment (MERTK): 0.79 | phosphorylation enrichment (EPHB2): 2.35 | phosphorylation enrichment (FGFR3): 14.3 | phosphorylation enrichment (AncSZ): 1.77 | phosphorylation enrichment (Fyn): 0.697 | phosphorylation enrichment (Hck): 0.908 | phosphorylation enrichment (Fes): 1.27 | phosphorylation enrichment (EPHB1): 6.99 | phosphorylation enrichment (c-Src): 1.85 | phosphorylation enrichment (c-Abl (mouse)): 2.19 | phosphorylation enrichment (Jak2): 20.5 | phosphorylation enrichment (Fer (mouse)): 0.81 | phosphorylation enrichment (FGFR1): 17.8

HTEGEYSSLEH [IDH3B_Y171_Q166H]
SH2 binding enrichment (c-Src SH2): 0.9 | SH2 binding enrichment (Grb2 SH2): 0.808 | SH2 binding enrichment (SHP2-C SH2): 0.862 | phosphorylation enrichment (MERTK): 0.764 | phosphorylation enrichment (EPHB2): 1.28 | phosphorylation enrichment (FGFR3): 0.785 | phosphorylation enrichment (AncSZ): 1.85 | phosphorylation enrichment (Fyn): 1.46 | phosphorylation enrichment (Hck): 1.24 | phosphorylation enrichment (Fes): 1.09 | phosphorylation enrichment (EPHB1): 1.44 | phosphorylation enrichment (c-Src): 1.02 | phosphorylation enrichment (c-Abl (mouse)): 0.97 | phosphorylation enrichment (Jak2): 0.828 | phosphorylation enrichment (Fer (mouse)): 0.791 | phosphorylation enrichment (FGFR1): 0.793

YSKDIYKRVTG [PANK2_Y405_N404I]
SH2 binding enrichment (c-Src SH2): 0.487 | SH2 binding enrichment (Grb2 SH2): 0.813 | SH2 binding enrichment (SHP2-C SH2): 0.612 | phosphorylation enrichment (MERTK): 0.401 | phosphorylation enrichment (EPHB2): 0.419 | phosphorylation enrichment (FGFR3): 0.342 | phosphorylation enrichment (AncSZ): 0.5 | phosphorylation enrichment (Fyn): 0.415 | phosphorylation enrichment (Hck): 0.487 | phosphorylation enrichment (Fes): 0.51 | phosphorylation enrichment (EPHB1): 0.38 | phosphorylation enrichment (c-Src): 0.394 | phosphorylation enrichment (c-Abl (mouse)): 0.435 | phosphorylation enrichment (Jak2): 0.447 | phosphorylation enrichment (Fer (mouse)): 0.551 | phosphorylation enrichment (FGFR1): 0.409
